Test results reported in article PMC11931385, “Structural and functional analysis of cancer-associated missense variants in the retinoblastoma protein pocket domain” (The Journal of Biological Chemistry, 2025).
Residue numbers refer to the chain shown, from its start. In names and notes the source's numbering stands. No end group written: not given here. TMR = tetramethyl rhodamine dye

T1: Rb^P A488V (human, UniProt P06400 380-788, A488V)
T1 construct: also called variant 14
T1 sequence (looked up): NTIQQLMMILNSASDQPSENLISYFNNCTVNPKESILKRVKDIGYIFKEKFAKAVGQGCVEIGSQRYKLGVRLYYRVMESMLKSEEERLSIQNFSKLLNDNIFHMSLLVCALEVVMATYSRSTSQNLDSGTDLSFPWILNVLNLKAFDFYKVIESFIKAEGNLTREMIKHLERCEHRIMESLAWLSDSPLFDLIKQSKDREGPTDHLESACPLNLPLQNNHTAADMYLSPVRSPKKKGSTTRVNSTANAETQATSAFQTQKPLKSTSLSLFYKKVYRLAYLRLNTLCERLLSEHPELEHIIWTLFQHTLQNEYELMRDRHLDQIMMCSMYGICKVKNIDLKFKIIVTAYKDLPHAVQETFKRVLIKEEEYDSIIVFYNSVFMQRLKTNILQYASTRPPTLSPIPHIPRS

T2: Rb^P Q444R (human, UniProt P06400 380-788, Q444R)
T2 construct: also called variant 4
T2 sequence (looked up): T1 sequence (looked up) with Q65R, V109A

T3: Rb^P T664A (human, UniProt P06400 380-788, T664A)
T3 construct: also called variant 50
T3 sequence (looked up): T1 sequence (looked up) with V109A, T285A

T4: Rb^P E693A (human, UniProt P06400 380-788, E693A)
T4 construct: also called variant 60
T4 sequence (looked up): T1 sequence (looked up) with V109A, E314A

T5: Rb^P T738I (human, UniProt P06400 380-788, T738I)
T5 construct: also called variant 67
T5 sequence (looked up): T1 sequence (looked up) with V109A, T359I

B1: TMR-E2F1^TD, peptide of the E2F1 transactivation domain (peptide)
peptide: {TMR}-GEGIRDLFDCDFGDLTPLD
notes: also called E2F^TD; source: synthetic peptide, bought: GenScript
B2: TMR-E7^LxCxE, LxCxE peptide of the E7 oncoprotein from HPV (peptide)
peptide: DLYCYEQLN
modifications: also: TMR label, position not given here
notes: source: synthetic peptide, bought: GenScript

How the values were obtained:
Assay in all cases: fluorescence polarisation; 25 °C; unlabeled Rb^P titrated against 1.5 nM TMR-E2F1^TD or 7.5 nM TMR-E7^LxCxE; 25 mM Tris pH 8.0, 200 mM NaCl, 1 mM DTT, 0.1% Tween-20; 2 min incubation; quadratic fit; apparent Kd for the variants, Kd for WT
Settings in all cases: both partners purified
Rb^P A488V = target: T1, Rb^P A488V
Rb^P Q444R = target: T2, Rb^P Q444R
Rb^P T664A = target: T3, Rb^P T664A
Rb^P E693A = target: T4, Rb^P E693A
Rb^P T738I = target: T5, Rb^P T738I

Row | Binder | Kd (Rb^P A488V) | Kd (Rb^P Q444R) | Kd (Rb^P T664A) | Kd (Rb^P E693A) | Kd (Rb^P T738I)
1 | B1 | 53 nM | 15 nM | 15 nM | 42 nM | 60 nM
2 | B2 | 9 nM | 7 nM | 8 nM | 7 nM | 18 nM
